Experimental data taken from article PMC8945615.

Biological target: soluble human fibrin (human) (UniProt P02679)
Assay: SPR

Chain of UniProt P02679 (P02679 whole entry, looked up, tested part not stated): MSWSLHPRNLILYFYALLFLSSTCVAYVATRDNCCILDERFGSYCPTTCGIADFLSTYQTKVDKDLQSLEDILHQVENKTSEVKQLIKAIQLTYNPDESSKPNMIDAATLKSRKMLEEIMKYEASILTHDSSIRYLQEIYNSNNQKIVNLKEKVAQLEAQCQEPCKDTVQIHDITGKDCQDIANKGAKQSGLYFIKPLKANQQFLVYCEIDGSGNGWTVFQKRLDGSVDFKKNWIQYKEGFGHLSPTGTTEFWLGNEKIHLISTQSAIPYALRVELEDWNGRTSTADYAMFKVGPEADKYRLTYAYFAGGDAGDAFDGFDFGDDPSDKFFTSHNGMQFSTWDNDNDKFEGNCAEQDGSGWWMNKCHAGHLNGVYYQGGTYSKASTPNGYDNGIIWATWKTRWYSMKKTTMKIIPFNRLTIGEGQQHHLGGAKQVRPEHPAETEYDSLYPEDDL

Substance: full-length, purified αIIbβ3 (from UniProt P08514 32-1039; P05106 27-788) (receptor)
- KD2 (heterogeneous ligand model): 3.79e-07
- KD2 (heterogeneous ligand model, primed with PT25-2): 1.37e-07
- Kd1 (heterogeneous ligand model): 1.47e-07
- Kd1 (heterogeneous ligand model, primed with PT25-2): 4.78e-08
- fold increase of ka1 on priming with PT25-2 (against unprimed αIIbβ3): 3 fold
- ka1 (heterogeneous ligand model): 13400
- kd1 (heterogeneous ligand model): 0.00196
